B1: Azoarcus group I ribozyme (parent)
chain: GUGCCUUGCGCCGGGAAACCACGCAAGGGAUGGUGUCAAAUUCGGCGAAACCUAAGCGCCCGCCCGGGCGUAUGGCAACGCCGAGCCAAGCUUCGGCGCCUGCGCCGAUGAAGGUGUAGAGACUAGACGGCACCCACCUAAGGCAAACGCUAUGGUGAAGGCAUAGUCCAGGGAGUGGCGAAAGUCACACAAACCGG

Variants of: B1
Test: reverse-splicing fitness (ratio to wild type); higher = more active; in vitro selection; Mg2+ level not given
Procedure, shortened: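 An in vitro group I ribozyme library with randomized positions was T7-transcribed and gel-purified. In triplicate, 10 pmol RNA in EPPS pH 7.5 was reacted with 50 pmoles of a 30-nt RNA substrate for 1 h at 37 °C across several added MgCl2 levels (1–48 mM), then stopped with EDTA. Products were reverse transcribed from a substrate-complementary primer, PCR-amplified and sequenced (HiSeq 4000). Fitness is a variant's read proportion after selection over that before, normalised to wild type.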

| Variant | reverse-splicing fitness |
| --- | --- |
| A111G A145C C150U U176A | 0.456 |
| A111G A120U C150A C169U U176C | 0.00598 |
| A111G A120U C150A C169U U176A | 0.0063 |
| A111G A120U C150A C169U U176G | 0.00282 |
| A111G A145U C150A C169G U176G | 0.00512 |
| A111G A145U C150A C169G U176C | 0.0131 |
| A111G A145U C150A C169G U176A | 0.014 |
| A111G A145G C150A C169G U176A | 0.0234 |
| A111G A145G C150A C169G U176G | 0.00564 |
| A111G A145G C150A C169G U176C | 0.0276 |
| A111G A120U A145U C150A C169U U176A | 0.00329 |
| A111G A120U A145U C150A C169U U176G | 0.00172 |
| A111G A120U A145U C150A C169U U176C | 0.00339 |
| A111G A145G C150A C169A U176C | 0.0214 |
| A111G A145G C150A C169A U176A | 0.0183 |
| A111G A145G C150A C169A U176G | 0.00563 |
| A111G A120U A145U C150G U176G | 0.00462 |
| A111G A120U A145U C150G U176C | 0.0298 |
| A111G A120U A145U C150G U176A | 0.0157 |
| A111G A120U A145U C150A C169G | 0.00763 |
| A111G A120U A145U C150A C169A | 0.00222 |

| Variant | reverse-splicing fitness |
| --- | --- |
| A111G A120U A145U C150A C169U | 0.0112 |
| A111G A120U A145U C150A C169A U176A | 0.00244 |
| A111G A120U A145U C150A C169A U176G | 0.00207 |
| A111G A120U A145U C150A C169A U176C | 0.00238 |
| A111G A145U C169A U176A | 0.0114 |
| A111G A120U A145G C150U C169G U176C | 0.0118 |
| A111G A120U A145G C150U C169G U176A | 0.0113 |
| A111G A120U A145G C150U C169G U176G | 0.00263 |
| A111G A120U A145U | 0.759 |
| A111G A145C C150U C169U U176C | 0.0247 |
| A111G A145C C150U C169U U176A | 0.0217 |
| A111G A145C C150U C169U U176G | 0.0062 |
| A111G A145U C150U C169A U176G | 0.00557 |
| A111G A145U C150U C169A U176A | 0.0142 |
| A111G A145U C150U C169A U176C | 0.0144 |
| A111G A145U C150U U176C | 0.697 |
| A111G A145U C150U U176G | 0.317 |
| A111G A145U C150U U176A | 0.677 |
| A111G A145C C150U C169G | 0.0327 |
| A111G A145C C150U C169A | 0.0167 |
| A111G A145C C150U C169U | 0.0495 |

| Variant | reverse-splicing fitness |
| --- | --- |
| A111G A120U C169U | 0.144 |
| A111G A120U C169G | 0.103 |
| A111G A120U C169A | 0.00619 |
| A111G A120U C169G U176G | 0.00198 |
| A111G A120U C169G U176C | 0.0228 |
| A111G A120U C169G U176A | 0.0109 |
| A111G A120U A145G C169U | 0.126 |
| A111G A120U A145G C169A | 0.00517 |
| A111G A120U A145G C169G | 0.087 |
| A111G A145U C150A C169G | 0.016 |
| A111G A145U C150A C169A | 0.0105 |
| A111G A145U C150A C169U | 0.0232 |
| A111G A120U C150G C169G U176A | 0.00427 |
| A111G A120U C150G C169G U176C | 0.00213 |
| A111G A120U C150G C169G U176G | 0.00237 |
| A111G A145G C169U U176G | 0.00661 |
| A111G A145G C169U U176C | 0.0655 |
| A111G A145G C169U U176A | 0.0478 |
| A111G A120U C150A C169A | 0.00359 |
| A111G A120U C150A C169U | 0.0125 |
| A111G A120U C150A C169G | 0.0107 |

| Variant | reverse-splicing fitness |
| --- | --- |
| A111G A145U C150G C169A U176A | 0.00932 |
| A111G A145U C150G C169A U176C | 0.00907 |
| A111G A145U C150G C169A U176G | 0.00461 |
| A111G A120U C150G C169A U176A | 0.00453 |
| A111G A120U C150G C169A U176C | 0.00366 |
| A111G A120U C150G C169A U176G | 0.00246 |
| A111G A120U C150U U176A | 0.23 |
| A111G A120U C150U U176C | 0.249 |
| A111G A120U C150U U176G | 0.0744 |
| A111G A120U A145U U176A | 0.364 |
| A111G A120U A145U U176C | 0.431 |
| A111G A120U A145U U176G | 0.15 |
| A111G A120U A145U C150G C169G U176G | 0.00203 |
| A111G A120U A145U C150G C169G U176C | 0.00268 |
| A111G A120U A145U C150G C169G U176A | 0.00284 |
| A111G A120U C150A C169G U176G | 0.00211 |
| A111G A120U C150A C169G U176C | 0.00454 |
| A111G A120U C150A C169G U176A | 0.00675 |
| A111G A145U C150U C169G U176A | 0.0215 |
| A111G A145U C150U C169G U176C | 0.0325 |
| A111G A145U C150U C169G U176G | 0.0059 |
